This note sets out measurements from a protein production outcome set (Wang et al. 2014).

The nature of this series: label from the status in PepcDB records.
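Further: failed if final PepcDB status was selected cloned or expressed and not failed if soluble or beyond.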

For the sequence “MLDDVLALIREHDRFFITTHLGPDGDAVGSQLALGRFLEKMGKSVAMVNADEVDYNLDWMPGAGDIAVFDGSLGQHEALAEAEVAFVLDTNDEERIGKVGSLVRDATATTVLVDHHLEPEHWFDVFFVREEAAATGELVYEIIDGLAPDLIDEGIATALYTAIMTDTGSFRYSSVTPALHRSVADILERGGIGPAPIHETIYDRKSMPGLRLLGRMLNRIRLRYNGQLGYSVVTQRMVEDTGASWDDKQGFVNYVLSIEDVKTALLFSETDDGAKISFRSEADVRVDQWARHFGGGGHRNAAGAYVKRPTFEKTIETVIDAASDYIAFDARHAPDDDLSPEDQSYLETLLDDPSDSPLEHHHHHH”, the protein production entry is listed as “failed”.

For the sequence “MLDKNKFIQINLVPCHFCYSFLSYASILEAIMKFKNILVVLNPSNEKQYALARAVRLVEEQKNETKVKITALLSVYDLSYEMSALLSSEERSEMHQQVIEKHRHAVQYYLDKYANPEIELQSHIVWNSNEADAINEEVENNNYDLVVKYTKDEEKLTSLIFTPIDWQLLRKCPIPVLMVRDGDWKHPRRILVAVNVSGEQEYQDEFNQELVETGISLAENLNRGNVHLVAAYPSAPINMAIDLPEFNTSGYENGIRGQHLINMKALRQKFGIDEDHTHVREGFPEEVIPEVAKEIEAELVILGTVGRTGLSAALLGNTAEHVISKLSCNLLGIKPSKKDD”, the protein production entry is reported as “failed”.

Take “MLDPATIVAVPAPGRACGPCTLCCKVYDVPAVESPAGRWCRHVRSGGGCGIHAERPDHCRAFHCLWMTETWIGPEWRPDRAKMVLSLDPVTRFLNVQVDPGQAGAWKRAPYHDQLRRWAAASLPLQRYVLVHVNKVTTVVLPDRDVALGTFGPGDRLVGRERMTPAGMTADVEKVSQLA”: the protein production result is “failed”.

For “MLDRLRSIPVRGLFARLFSWLFFGLAFALVAATIVDVFELLNSDEPLMQAMINGVNGSIIALAVYELAMVIRSEYSGRSETHDIVTMMRRTLPRFISTVCVAMSLEGLIMIIKYSQLDLAGNLVYPVAIIASTALLLAALGVFLKMAPKEIGANGCDESCTTK”, the protein production entry was “failed”.

Regarding “MLDSFEILKALKSLDLLKNAPSWWWPNALKFEALLGAVLTQNTKFEAVLKSLENLKNAFILENDDEINLKKIAYIEFSKLAECVRPSGFYNQKAKRLIDLSKNILKDFQSFENFKQEVTREWLLNQKGVGKESADAILCYVCAKEVMVVDKYSYLFLKKIGIEIEDYDELQHFFEKGVQENLNSALALYENTIPLAQLYARFHGKIVEFSKQKLELKL”, the protein production entry is on record as “failed”.

Turning to “MLDSINRVLDRPDFGKLFLRVSFSVLMLFHGWHKLHGGIGFIEGMLTNAGLPAFVGYGVYVGEIIIPIMMILGIFTRPAALIFSFTMFVASLLVHSGDFLSLEKTGAWAVEGAAVFFFAGIAIALLGSGKYSVMSNPRWR”, the protein production result was “failed”.

Regarding “MLDVRARAALSGPLDRAAAMLDRPAVTPNRLTALGLLTGLASAGSAAAGWWPAAAALWLLSRLADGLDGPLARRRGTANSSGAGGFLDISADFLVYGAFVVGVAVGVGGPALPFLLVLLTYYVNGTAFLAFSSIAERTGRRGDGRLSGGRSLNFLGGLAEGGETIAVHTLWCLLPGFAHTIAWVWAAVVAVTAAHRVVTGYRQLR”, the protein production result is recorded as “failed”.

Turning to “MLEGEFLSVAELKDLTLSLASKFLNNLLASKLLVSKQLFIDRKKELGLLEERLKSGKAQFIVIYGRRRVGKTALILEFLRRHGGLYLLARETSEIENLERFSLRLAEYFNDSFLKKNPLRSLDAFFEYLSTKAEKPFIIAIDEFPYLVKGNKALPSILQEYWEMKLSKKKIFLIVSGSSVSMTERLLGYKSPLYGRRTAQLKLKPLDFFNAREFLPKYSLEDFVRVYGILGGTPAYLLEFSDEKSLEENLKSYFRVDSLLYGDALFILREELDEPRNYFAIMEAIARGNTTLGEIVNETGLERATVGKYLSVLIDLDLVRREVPITASRKSRKGRYYIADNYFAFWFRYVYPNADLIESGNGELLVDTVMDDIDHYTGEVFEGVAKEFLLRLNKSERLPFRFSRVGRWWYKNEEIDLVALNEREKKVLFIEVKWKDLSKREARGILKDLKRKAKLVGLDEWGKHYGLVAKSVRGKDEIKEEGWLAWDLEDIHRMAFLEHHHHHH”, the protein production entry was “failed”.

For the sequence “MLEHLIKISRRNWSSLKVIILAGGRGKRITLFKPFLVVCGKPLISWAFDAVNKLSDKVYLGINQSHPLFTIFKHSIFKIFPTPDISYENDVKYVVESLGPPILVLPVDIAFINNNIINNLIERCAVDMCTLKSYGSYLGVTYWTGLNFSNYTDIEVKEKLYNINTWEDYIKANKECNILLEHHHHHH”, the protein production result was “not failed”.

As to “MLELIIILLFIILSAIFSASETAYTSLSIIQIQDIRKKGKSGISVYNLVQSPSKLITTILIGNNISNIVASTLTTKFVLEKYGNSALAISTGLITIIVLIFAEILPKQIAILNNEIIALSTSFFLKPLIFIFTPLIYIINKIIKKILNLFKVKTSSQMTKESIKNMLSLAGSLGILKNDSRIFMQKMLDIDQVRASEIMTHRTGVFSLSSSSKLKDVIKLIKEEGYSRIPIYKGQSREQIIGILIAKDLIEVNKKDMNKNVSQFIKPAVFVQQNKRIKDILDIMRKKQKIMAIVIDEYGGFSGILTIEDIVEKIFGAISDEYDIKEEKPLITQINDNTYSILGETTFDEIEEAIGISIKHKEYTNTIGGYLIDLLDKIPTKNETVKTNDGEYFIKEIQNNKIETITFIKSKK”, the protein production result is recorded as “failed”.

Turning to “MLELLTLLLPVAAASGWYAAARHHGRNLSAGLNDGLQRAYQTPTDTAIGARADEAFHLLRQIADSSAKTLELQLALGGLLRRSGELSKAIELHERLHSQPQMSDEQLHAIRFELGMDYLSAGLLDRAETVFAGLTATASHGKASLQQMLAIYQSEKDWVRAAECARSLKKFDAGQRNATLAHLLCEQAESAIARGETVAAHAHLQQALAEDPRCVRATLLKSRLALQRQQWAEAGTLLRSVEFQNPAFLPEVIGQLRLCHASLRDMDGYLTYLDYVYQRYRTEAAALLLADELAQREGAPAAASYLTGLLSERSSLNLIRRTLHYAGAATCIDGDCLSILRRCLTALDGLASMHPGYGCVQCGYECRELHWHCPTCRAWETIQPADPGVGFSGKTPATTPS”, the protein production entry is given as “failed”.

On to “MLELLYTALLYLIQPLIWIRLWVRGRKAPAYRKRWGERYGFYRRPLKPGGIMLHSVSVGETLAAIPLVRALRHRYPDLPITVTTMTPTGSERVQSAFGNDVQHVYLPYDLPDALNRFLNKIDPKLVLIMETELWPNLIAALHKRHIPLVIANARLSARSAAGYAKLGKFVRTLLRRITLIAAQNEEDGERFVALGAKNNQVTVTGSLKFDISVTPQLAAKAVTLRRQWAPHRPVWIATSTHDGEESIVIAAHQALLHQFPNLLLILVPRHPERFPDAINLVRQAGLSYITRSSGEVPSASTQVVVGDTMGELMLLYGIADLAFVGGSLVERGGHNPLEAAAHAIPVLMGPHTFNFKDICARLDQASGLITITDAATLAKEVSSLLTDADYRNFYGRHAVEVLYQNQGALQRLLQLLEPYLPPKTHLEHHHHHH”, for which the protein production entry is “failed”.

“MLETSSHFLKSFRLKRYIGFLLISLALLITPFVRIDGAHLFLISFEHKQLHFLGKIFSAEELQVMPFMVILLFIGIFFITTSLGRVWCGWACPQTFLRVLYRDVIETKIFKLHKKISNKQESPKNTPSYKIRKVLSVLLFAPVVAGLMMLFFFYFIAPEDFFMYLKNPSDHPIAMGFWLFSTAVVLFDIVVVAERFCIYLCPYARVQSVLYDNDTLNPIYDEKRGGALYNNQGHLFPLPPKKRSPENECVNCLHCVQVCPTHIDIRKGLQLECINCLECVDACTITMAKFNRPSLIQWSSTNAINTRQKVHLVRLKTIAYMGVIAIVIALLAITSFKKERMLLDINRNSDLYELRSSGYVDNDYVFLFHNTDNKDHEFYFKVLGQKDIQIKKPLNPIAIKAGQKIKAVVILRKPLKSNATEYKNAKDALIPITIQAYSADDKNITIERESVFIAPSED”: the protein production result was “failed”.

Turning to “MLETVAGVTIGASCIILTIALTKKLGPEWAWINRKLIHLSIIPAALFFYYGIIPREIFSPAAALFGIAQLLAHVKNRELNWYQLKQNYGEVFFAFSASFITFVFPRDYASALLLVMAISDGVTGIIRHYYFKRNGFNVKLKKHWTGSLGYIITAIIIAVAFLDGNIIEKVGWAFILMLAEYQPWIDDNLAVPLVGSALYFLY”, the protein production entry is “failed”.

As for “MLETYALKNGAVFISDAHFLPKSPHLIHTLKELLSAKPPQVFFMGDIFHVLVGYLPLDKEQQKIIDLIHALSEISQVFYFEGNHDFSMRFVFNSKVMVFERQNQPVLFQYDNKRFLLAHGDLFITKAYEFYITQLTSTWARFFLTFLNLLSFKTLYPLFKKLIYQKPVRLWELEPKELQSFIEKRLKAYQNYIKDLNIGSIDGIIEGHFHLKSGAKIPLNTPIYCPLPSFYYEQSLFKVSSSVLEPSQNKDA”, the protein production entry is given as “failed”.

For “MLEVHIPSVGPEAEGPRQSPEKSHMVFRVEVLCSGRRHTVPRRYSEFHALHKRIKKLYKVPDFPSKRLPNWRTRGLEQRRQGLEAYIQGILYLNQEVPKELLEFLRLRHFPTDPKASNWG”, the protein production result is given as “not failed”.

“MLFDEKEILAITRWAKLYANQSPDRILLGSNDIPPEYRAAVATQIELWPRLRNKLPQWPGISSLYIPSRLSLEQSSGAVTSSYKSRFIREGTKVVDLTGGLGIDFIALMSKASQGIYIERNDETAVAARHNIPLLLNEGKDLNILTGDFKEYLPLIKTFHSDYIYVDPARRSGADKRVYAIADCEPDLIPLAAELLPFCSSILAKLSPMIDLWDTLQSLPHVQELHVVAAHGEVKELLVRMSLNEATIPPEKVPIHAVNLLSEDTVIPFIFTMEEERSISVPYADSIDKYVYEPHTALFKAGAFKTVAYRLGLRKLHPNSHLYTSEAYESAFPGRTFVLEEIIPFSTSVLKQLGKVVPRASISCRNFPLSPIELRQRSKMADGGEKTLMGTTMADGKKVLLLLRKAE”: the protein production result is given as “failed”.

Consider “MLFIPPPLLCLFIAIAMYFLPKIASYSVHFSVIVFVISLSFLIALSSVMQSLYVKPPLILVTLKAQQN”, for which the protein production result is listed as “failed”.

Take “MLFKRPDTETLYFALVNKDPAYEGVAYVCVTSTKIFCRFTCTARKPKIENCRFRETITECLEAGFRPCKRCKPMLSYGTPDGTVTALLTALENEPARRWREEDVVALGHDPSTVRRSFKRRFGMSFLEIARLRRVGDAAESLASGEAVIGAQIDAGYESGSGFRSAINQLFGTSPAAMKGRGFLKGDWIDTPIGPMLAVADDHALHLLEFADRPALPAELKRLKARTGADMVLGRTAVTGQIAAELAAYFAGRSGSFETRLAGHGTPFERDVWRNLREIPAGEIVSYSSLATAMERPTAVRAVARANGANQLAIVVPCHRVLGADGSLTGYGGGLWRKKWLIEHERRMARGLEHHHHHH”: the protein production result is on record as “not failed”.

Regarding “MLFSIVVHQMILFFSILLVGNVAAKQGVIQENYLPDLAKLVSKIFLPVLIFYMTYAGTTRQMVWENAAMIGLAALFYVVISAVTWIIAKGLRPAGDKAKVFQFAFIFGNTGFVGVPLLIALFPKDGILYLALFSIVDQLLFWTYGVYLATASDKKAKITLKSFVNPNIVAIALALIFIMIGAKLPTVIDDTLQTIKNAVGAMAMIYLGALIFYSDWKTAFKTKDLYFGIVVKMIILPILLGKLLLMTGLPNNMIWSMIILMSLPTMTVVPMIAKLYGHEGAYAAGITAATLAVSIVTIPVVVFFTT”, the protein production entry is “failed”.

As for “MLFSSASFVPIVRRMSRPTILPAYILATLPLVMALLATAVSIGTGDEVVNFFRQYRQAHPALTACMQVITDFGNPLLYLVYGAIFFRARKRGDRHDMRFVAVYIVVQLLVSFLAVRILKIGFGMPRPGTEGPAIPFSFKGVYNSFPSGHTTEIVGAVVPLAWRCKALLPTLALGIYMGIVGYSRIYLGMHHITDVFAGLLLGSVAAWIIHRLADRTPS”, the protein production result is listed as “failed”.

Regarding “MLFYLYVTRCKQLLNYNNMETDNGDKEKSEEDDLCALKDALEAVILFQGLSEYQKKLMFPNLKNLGAETIKELIDEWKELNVEELNLNIKKQTFFTKFANASWSLMLLIQQENNFCFWMFYVIPTSLFFVCCVLLHLLNDGS”, the protein production result was “failed”.
